The values below are quoted from earlier work in publication PMC6707866.

For orientation: Kd means the constant that tells how readily two partners part at equilibrium.

The series deals with Bag3 (Homo sapiens) (UniProt O95817).
Sequence of UniProt O95817 (O95817 2-575): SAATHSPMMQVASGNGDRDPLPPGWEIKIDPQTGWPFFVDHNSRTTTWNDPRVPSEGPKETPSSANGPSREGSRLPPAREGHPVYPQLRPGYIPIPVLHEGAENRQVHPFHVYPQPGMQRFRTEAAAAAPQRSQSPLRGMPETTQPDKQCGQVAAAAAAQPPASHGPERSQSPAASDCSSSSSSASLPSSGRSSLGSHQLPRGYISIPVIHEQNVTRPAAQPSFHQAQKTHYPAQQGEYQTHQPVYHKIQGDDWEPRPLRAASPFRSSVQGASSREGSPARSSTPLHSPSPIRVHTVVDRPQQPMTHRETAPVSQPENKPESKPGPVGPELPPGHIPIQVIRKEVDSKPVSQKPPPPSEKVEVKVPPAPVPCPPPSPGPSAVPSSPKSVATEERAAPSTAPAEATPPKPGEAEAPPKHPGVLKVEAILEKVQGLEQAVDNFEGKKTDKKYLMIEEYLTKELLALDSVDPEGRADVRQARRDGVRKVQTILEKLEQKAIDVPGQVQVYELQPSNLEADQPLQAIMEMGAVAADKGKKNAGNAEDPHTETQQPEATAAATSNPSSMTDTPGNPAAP

As for Hsp70 (from UniProt P0DMV8), the dissociation constant (Kd) is 0.025 µM.
